What was measured:
Assay in all cases: cell-based or functional assay
[1] = target: T1, endogenous TFPI of human plasma (human, UniProt P10646 29-304, limits assumed)
[2] = target: T2, human TFPI alpha (full-length TFPIα) (human, UniProt P10646 29-304)
[3] = target: T2, human TFPI alpha (full-length TFPIα); remark: listed apart in the source
[4] = target: T1, endogenous TFPI of human plasma; remark: listed apart in the source
[5] = target: T2, human TFPI alpha (full-length TFPIα); remark: listed apart in the source

Row | Binder | Peak (nM); thrombin generation, FVIII-neutralised plasma, endogenous TFPI; 10 nM Fab [1] | Peak (nM); thrombin generation, FVIII-neutralised plasma, endogenous TFPI; 50 nM Fab [1] | Peak (nM); thrombin generation, FVIII-neutralised plasma, endogenous TFPI; 100 nM Fab [1] | ttPeak (min); thrombin generation, FVIII-neutralised plasma, endogenous TFPI; 10 nM Fab [1] | ttPeak (min); thrombin generation, FVIII-neutralised plasma, endogenous TFPI; 50 nM Fab [1] | ttPeak (min); thrombin generation, FVIII-neutralised plasma, endogenous TFPI; 100 nM Fab [1] | Peak (nM); thrombin generation, FVIII-neutralised plasma + 10 nM TFPIα; 10 nM Fab [2] | Peak (nM); thrombin generation, FVIII-neutralised plasma + 10 nM TFPIα; 50 nM Fab [2] | Peak (nM); thrombin generation, FVIII-neutralised plasma + 10 nM TFPIα; 100 nM Fab [2] | ttPeak (min); thrombin generation, FVIII-neutralised plasma + 10 nM TFPIα; 10 nM Fab [2] | ttPeak (min); thrombin generation, FVIII-neutralised plasma + 10 nM TFPIα; 50 nM Fab [2] | ttPeak (min); thrombin generation, FVIII-neutralised plasma + 10 nM TFPIα; 100 nM Fab [2] | Peak (nM); thrombin generation, FVIII-neutralised plasma + 20 nM TFPIα; 200 nM antibody [3] | ttPeak (min); thrombin generation, FVIII-neutralised plasma + 20 nM TFPIα; 200 nM antibody [3] | also measured
1 | Fab 0088 (Fab, V domains shown) VH: EVQLVESGGGLVKPGGSLRLSCAASGFTFSNYAMSWVRQTPEKRLEWVATISRSGSYSYFPDSVQGRFTISRDNAKNSLYLQMNSLRAEDTAVYYCARLGGYDEGDAMDSWGQGTTVTVSS VL: DIVMTQTPLSLSVTPGQPASISCKSSQSLLESDGKTYLNWYLQKPGQSPQLLIYLVSILDSGVPDRFSGSGSGTDFTLKISRVEAEDVGVYYCLQATHFPQTFGGGTKVEIKR | 85.6 nM | 85.2 nM | 90.2 nM | 11.5 min | 11.6 min | 11.6 min | 12.7 nM | 42.9 nM | 54.2 nM | 29 min | 21.2 min | 20.2 min | – | – | –
2 | mAb 2021 (antibody, IgG4, V domains shown) VH: EVQLVESGGGLVKPGGSLRLSCAASGFTFSNYAMSWVRQTPEKRLEWVATISRSGSYSYFPDSVQGRFTISRDNAKNSLYLQMNSLRAEDTAVYYCARLGGYDEGDAMDSWGQGTTVTVSS VL: DIVMTQTPLSLSVTPGQPASISCKSSQSLLESDGKTYLNWYLQKPGQSPQLLIYLVSILDSGVPDRFSGSGSGTDFTLKISRVEAEDVGVYYCLQATHFPQTFGGGTKVEIKR | – | – | – | – | – | – | – | – | – | – | – | – | 17.2 nM | 26.2 min | –
3 | Fab 0313 (Fab, V domains shown) VH: EVQLVESGGGLVKPGGSLRLSCAASGFTFSNYAMSWVRQAPGKGLEWVSTISRSGSYSYYADSVKGRFTISRDNAKNSLYLQMNSLRAEDTAVYYCARLGGYDEGDAMDSWGQGTTVTVSS VL: DIVMTQTPLSLSVTPGQPASISCKSSQSLLESDGKTYLNWYLQKPGQSPQLLIYLVSILDSGVPDRFSGSGSGTDFTLKISRVEAEDVGVYYCLQATHFPQTFGGGTKVEIKR | 10 nM | 19.8 nM | 29.6 nM | 21 min | 10.2 min | 8.9 min | 0.4 nM | 0.8 nM | 1.4 nM | 106 min | 76.2 min | 48.1 min | – | – | –
4 | mAb 0310 (antibody, human IgG1, kappa, V domains shown) VH: EVQLVESGGGLVKPGGSLRLSCAASGFTFSNYAMSWVRQTPEKRLEWVATISRSGSYSYFPDSVQGRFTISRDNAKNSLYLQMNSLRAEDTAVYYCARLGGYDEGDAMDSWGQGTTVTVSS VL: DIVMTQTPLSLSVTPGQPASISCKSSQSLLESDGKTYLNWYLQKPGQSPQLLIYLVSILDSGVPDRFSGSGSGTDFTLKISRVEAEDVGVYYCLQATHFPQTFGGGTKVEIKR | – | – | – | – | – | – | – | – | – | – | – | – | – | – | Peak (nM); thrombin generation, FVIII-neutralized plasma, no TFPI added; 10.0 nM mAb [4]: 118 nM; ttPeak (min); thrombin generation, FVIII-neutralized plasma, no TFPI added; 10.0 nM mAb [4]: 8.5 min; Peak (nM); thrombin generation, FVIII-neutralized plasma + 10 nM TFPI alpha; 100.0 nM mAb [5]: 28.3 nM; ttPeak (min); thrombin generation, FVIII-neutralized plasma + 10 nM TFPI alpha; 100.0 nM mAb [5]: 24.5 min
5 | mAb 1F91 (antibody, IgG1, V domains shown) VH: DVQLQESGPGLVKPSQSLSLTCTVSGYSITSDYAWNWIRQFPGNKLEWMGYISYSGSTSYNPSLKSRISITRDTSKNQFFLQLNSVTTEDTATYYCARWAYDGPWGQGTLVTVSA VL: QIVLSQSPALLSASPGEKVTMTCRASSSVSHMHWYQQKPGSSPKPWIYATSNLASGVPARFSGSGSGTSYSLTITRVEAEDAATYYCQQWSSNPFTFGSGTKLEIKR | – | – | – | – | – | – | – | – | – | – | – | – | 0 nM | – | –
6 | Fab 0295 (Fab, V domains shown) VH: QVQLKQSGPGLVQPSQSLSITCTVSGFSLTNYGVHWVRQSPGKGLEWLAVIWRGGSIDYNAAFMSRLSITKDNSKSQVFFKMNSLQADDTAIYYCAKNSHGNYVGYAMDYWGQGTSVTVSS VL: GIVMTQSQKFMSTTVGDRVSITCKASQSVGPAVAWYQQKPGQSPKLLIYSASNRYTGVPDRFTGSGSGADFTLTISNLHSEDLADYFCQQYTSYPTFGGGTKLEIKR | 94 nM | 101 nM | 103 nM | 8.4 min | 8.2 min | 8.2 min | 10.9 nM | 31.8 nM | 33.8 nM | 25.2 min | 11.5 min | 10.8 min | – | – | –
7 | mAb 2F3 (antibody, IgG1, V domains shown) VH: QVQLKQSGPGLVQPSQSLSITCTVSGFSLSSYGVHWVRQSPGKGLEWLGVIWRGGSTDFNAAFMSRVSFTKDNSKSQVFFKMNSLQADDTAIYYCAKNSHGNYVGYAMDYWGQGTSVTVSS VL: DIVMTQSQKFMSTTVGDKVSIPCKASENVGAAVAWYQQKPGQSPTLLIYSASNRYTGIPDRFTGSGSGTDFTLTIRTVQSEDLADYFCQQYTNYPTFGGGTKLEIKR | – | – | – | – | – | – | – | – | – | – | – | – | 20.9 nM | 14.6 min | –
8 | mAb 2F22 (antibody, IgG1, V domains shown) VH: QVQLKQSGPGLVQPSQSLSITCTVSGFSLTNYGVHWVRQSPGKGLEWLAVIWRGGSIDYNAAFMSRLSITKDNSKSQVFFKMNSLQADDTAIYYCAKNSHGNYVGYAMDYWGQGTSVTVSS VL: GIVMTQSQKFMSTTVGDRVSITCKASQSVGPAVAWYQQKPGQSPKLLIYSASNRYTGVPDRFTGSGSGADFTLTISNLHSEDLADYFCQQYTSYPTFGGGTKLEIKR | – | – | – | – | – | – | – | – | – | – | – | – | 23.7 nM | 13.6 min | –
9 | mAb 0336 (antibody, human IgG1, kappa, V domains shown) VH: QVQLKQSGPGLVQPSQSLSITCTVSGFSLTNYGVHWVRQSPGKGLEWLAVIWRGGSIDYNAAFMSRLSITKDNSKSQVFFKMNSLQADDTAIYYCAKNSHGNYVGYAMDYWGQGTSVTVSS VL: GIVMTQSQKFMSTTVGDRVSITCKASQSVGPAVAWYQQKPGQSPKLLIYSASNRYTGVPDRFTGSGSGADFTLTISNLHSEDLADYFCQQYTSYPTFGGGTKLEIKR | – | – | – | – | – | – | – | – | – | – | – | – | – | – | Peak (nM); thrombin generation, FVIII-neutralized plasma, no TFPI added; 10.0 nM mAb [4]: 140 nM; ttPeak (min); thrombin generation, FVIII-neutralized plasma, no TFPI added; 10.0 nM mAb [4]: 7.8 min; Peak (nM); thrombin generation, FVIII-neutralized plasma + 10 nM TFPI alpha; 100.0 nM mAb [5]: 44.9 nM; ttPeak (min); thrombin generation, FVIII-neutralized plasma + 10 nM TFPI alpha; 100.0 nM mAb [5]: 11.7 min

From US20170260289A1 (Novo Nordisk, published 2017)
